Values of other authors as cited in paper PMC7288020.

Biological target: Aβ1-40 Aβ 1-40 (Homo sapiens) (UniProt P05067)
UniProt P05067, sequence (P05067 1-40): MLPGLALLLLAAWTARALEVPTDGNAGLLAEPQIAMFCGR

## ApoA1 (from UniProt P02647)
  Kd: 6 nM
